Data reported in paper PMC2893186 (BMC Structural Biology, 2010).

Target: the molecule itself
Assay: crystal structure; crystals grown from purified His-tagged ZHX2 HD2-3 (OPPF_2273), 20% PEG6000, 0.2 M LiCl, HEPES pH7; protein cleaved in the droplet, two molecules of HD2 in the asymmetric unit; 2.70 Å, data at 100 K

B1: ZHX2 HD2 (homeodomain 2 of human zinc-fingers and homeoboxes 2), proteolytic fragment derived from OPPF_2273 (ZHX2 HD2-3) (domain or fragment)
chain: RKKTKEQIAHLKASFLQSQFPDDAEVYRLIEVTGLARSEIKKWFSDHRYRCQRGIVHI
notes: ZHX2 (zinc-fingers and homeoboxes 2), human; homeodomain 2; Expressed as construct OPPF_2273 (HD2-3, aa 444-582); HD2-HD3 was cleaved by proteolysis after purification and only HD2 crystallized; Cys494 lies in the fragment; Homodimer in the crystal, with helix I domain-swapped and a disulfide bridge between the Cys494 of the two subunits; the deposited entry would show the ordered residues; also …
stoichiometry N: 2
